Our source for the Kd values is paper PMC6555848.

The target of the experiment is fluorescein-labeled phospho-Tyr peptide derived from the EPO receptor (FAM-GpYLVLDKW). As to the kind of experiment: fluorescence polarisation; 10 nM FAM-labelled peptide, increasing STAT5B protein; 20 mM HEPES, 50 mM NaCl, 0.1% NP-40 substitute, 10% DMSO; 1 h at room temperature; 1:1 model; pH of the Kd values printed in the text not stated (pH 6.8, 7.25, 7.5 or 7.9 were used). For orientation: Fluorescence polarisation rises when a labelled molecule tumbles more slowly, as on binding a larger partner.
In turn, “STAT5B^N642Q (from UniProt P51692 1-787) (natural protein)” gave a Kd of 229 nM.

The substance “STAT5B^N642D (from UniProt P51692 1-787) (natural protein)” registered a dissociation constant (Kd) of 261 nM.

“STAT5B^N642A (from UniProt P51692 1-787) (natural protein)” yielded a Kd of 612 nM.

In general, Kd refers to a measure of binding affinity in units of concentration. Low readings indicate tighter binding, high ones weaker binding.
